Results from the DeepSol protein solubility set.

Experiment: soluble on expression in E. coli; label from the status in PepcDB or PDB records

Row | Sequence | soluble on expression in E. coli
1 | MAFAGLTDLRLFDNVSHYINELAGEFSPDTAHLHDHNCKCSIVDRLWCDYFGMGTCISREARARRKERKRNIKRLREARNASASPRDPFSNGHRYGHRSRSEGGNGDVRDDIKELIIETLEVIRTLVNNEQEPPQSLLKLNFIADEEKGWTMVVRALIYTIPENDPLGPAVISLFLDECPLPSRESVQTLLLSLGLSSEFVDSKHLPPSWHKNMCIVLGSLAEKMAGSAAVTMFNDKIKGYLMKIICYGLTYFPPNYGKTLKEKNTHCVRMFALLALEKFAQTRENQISICKMFTEMTTHPLIKMEEYLKNEEVSRYWFAKQEGFCAQWALDNIFILESRPYSYETCETSKINAMLNHEDVSEYLKIGPDGLEARCDVSSFESVRCTFEVMDGVWYYEATVLTSGVMQIGLATKRSRFLNHEGYGIGDDASSVAYDGCRQLVWYNAKSHKHEHENWQPGDVIGVLLNIPEGEVVFYLNGTPLKEPETEFLSNRQPSEGVFAAASFMSFQQCRFNFGASRFKYNPGKKFRCFNDFGKLSTEQRTIVPRRLRLELLEKEHIPEDYCTICFAAPGSTTLLPCNHDGFCSDCCNMMDHCPLCRKPIEERIQKTKNNRSFDNVKSPSNSSISAFVRVNSQRKSTRATSAVATHPTDTVIHTGITTANNRDIARRHTQV | not soluble
2 | AFNNNPSSVGAYSSGTYRNLAQEMGKTNIQQKVNSTFDNMFGYNNTQQLYYPYTENGVYKAHYIKAINPDEGDDIRTEGQSWGMTAAVMLNKQEEFDNLWRFAKAYQKNPDNHPDAKKQGVYAWKLKLNQNGFVYKVDEGPAPAGEEYFAFALLNASARWGNSGEFNYYNDAITMLNTIKNKLMENQIIRFSPYIDNLTDPSYHIPAFYDYFANNVTNQADKNYWRQVATKSRTLLKNHFTKVSGSPHWNLPTFLSRLDGSPVIGYIFNGQANPGQWYEFDAWRVIMNVGLDAHLMGAQAWHKSAVNKALGFLSYAKTNNSKNCYEQVYSYGGAQNRGCAGEGQKAANAVALLASTNAGQANEFFNEFWSLSQPTGDYRYYNGSLYMLAMLHVSGNFKFYNNTFN | soluble
3 | SEQKYEEDIQKLQQEIEMLEAEQEETLRSIFVQHGDRLQQGVKSACEERGGGGAQQHTLSKLITEVRELEKDLRRQTEINGITLNECFVKTLHKSERKLIQQLRLAGHCGLLLFQVEFAVTEIQEDNVLHRRVTELNIVVDGVEFKDFSAFVSRVEDTKDLLLFFRTLRTFSERCEDRRQTFQHFQEKYPDVVNLPEGCRSEIMIIRSPQLPGISMTLFWKIHVSKEGVVKPLLDLLLKMPDQALELDTKKVMEKASDYFQSLLQLLGVEASIEGLIRTVCS | soluble
4 | MGSDKIHHHHHHMESEIKTRGFAIDVSRDKLTVAKAELVITQEKREVEVNEVREFKYDNEGIEELIKFLGEYKEGIMESTGPYFFYLHEELTEKGYKVTLINPLHLKEVFGKKTDKLDAQRLAKAFILGAVKGSYIPTGEIRELRELTRYRESLMRKITQVKNEIRKFLEMAGYKIEPFDKRGMALLEKLSRGEGLSKEERDELKEKLGRSLNDAEKLALKQLVDLLKSLEAMVKEVEDMIISKIPQPVVELSRELV | not soluble
5 | MSETRRNQSSDEQIEKSEIQHQRVVIENSHGEKLVGVLHDTGSTETVVICHGFRSSKNRIPMLTIASFFERAMISSFRFDFAGNGESQGSFQYGNYRREVEDLRSVLQHLRGVNRVISAIIGHSKGGNVVLLYAAKYNDVQTVVNISGRFFLDRGIEFRLGKDYFKRIKDNGFIDVSNRKGKFEYRVTEESLMDRLTTNAHEACLSIRENCRVLTVHGSNDRIVHVTEASEFAKQIKNHKLYVIEGADHEFTSHQHQLASIVLSFFKLDPKKDDESGDISTSNQDSMRSVVPITSRI | soluble
6 | MSLSEYQDLSQQIELIATAEESEQTHLLGEMVENGLDEGSIALILEAFPVEQRVRLWRSLPLEMHIDVLTEMRAEVRISVINALSEIELKLTLAKLDNLSLIEWEDSLPDDIISEALSLINRDELELYDQANEFADDEIGHWADRKVYTLPFSISVRRAKVLLDKYHYDSPQYIYLINKAKKFRGLVSFSDVLQAEETTQLKNLRMEELVTLNAKQTLSDAVDALEHTTLPIVPVLSDDETLIGEIDWHFALSVQREMYEARLMAGTGMDEGDDLFAPVIKSEGHHHHHH | soluble
7 | MSLSNFYKLLKEKFPRKEDIVTEMINLEAICQLPKGTEYFISDLHGEYDAVDYLLRTGAGSIRAKLLDCFDWQKIVAVDLDDFCILLYYPKEKLAFDKMNLSASAYKTKLWEMIPLQIQVLKYFSSKYTKSKVRKQLSGKFAYIIEELLAEIDRNPEKKSYFDTIIEKLFELDQVEDLIIVLSQTIQVLIIDHLHVVGDIYDRGRYPDRILNRLMAFPNLDIQWGNHDVTWMGAASGSYLCMVNVIRIAARYNNITLIEDRYGINLRRLVDYSRRYYEPLPSFVPILDGEEMTHPDELDLLNMIQQATAILQFKLEAQLIDRRPEFQMHNRQLINQVNYKDLSISIKEVVHQLKDFNSRCIDSKNPSRLTSEEEELLQQLMIAFQTSESLKKHIDFLFEKGSMYLTYNDNLLFHGCIPMHSNGDFKSFKIAGKTYGGRDLLDLFESQIRLAYARPEKHDDLATDIIWYLWCGENSSLFGKNAMTTFERYYVSDKVTHQERKNPYFKLRDKDDICTALLQEFDLPKFGHIVNGHTPVKEKNGEQPIKANGKMLVIDGGFAKGYQKNTGLAGYTLIYNSYGIQLISHLPFTSIEEVLSGTNYIIDTKRLVEEAKDRILVKDTTIGQKLTKEIKDLDHLYRHFQEYDEGHHHHHH | soluble
8 | MKWTVQQLRRFQHKEMAIDETVDVSDLKQIDTLIRDISPVHVQGKADVGSTKFTFHLTLSGTMVLPCSRTLVDVAYPFSIQTTETFFADGSGIVETDEDTHMVAGDTIDLNPIIRELILLEIPLQLIAEGPVAGGAPQHGEGWDVLSEEEWEKAMQEREKKVDPRLAGLAKFFEEKREE | not soluble
9 | MKDPKAPIGVFDSGVGGLTVLKALRRLLPREEFLYFGDTARVPYGGKPLAMVRRFAWEIAGFLLRQGVKAIVVACNTASSAALPDLAEDLSVPVFGVVEPVARAVRGFRKVGLIGTQATVESGAYPRYVDLACAKACPLFVPLVEEGLWDDPVALLVARHYLEDAPKDLEALILGCTHYPFLKGAIGAVLPGVALLDSAELTAQEVARALEAEGLLNPEGRGRTFHLVTGDPEAYRALAERLGERVEAVRRVSLEEL | soluble
10 | MAVRIVTDSSSGLPAEIAEELGITVVDLHLVASENQVSTAGLSALELTAAYARQLERGGDAGVVALHLSKELSSTWSAAHTAAAVFDGTVDVVDTQSVGMCVGAAAMAAARLAQGGASLRECADMARDTLRRSETWLYLHRMEEMRRSGRITTATAVVSAALATKPIMQLRGGHVELAVKTRTQSKAFARLVAVISDRCAGEPAFVAIQHHQALEAAHSLQSQLTAALPKGSSFMIMDMDQALSVHCGVGALGISVVFSSYSDTAPIDLSTTS | not soluble
11 | MGHSQSYDLRNPEGGEKTPVRGVRRVSREHQTDAQFSTETAEPFDFREDELRDRIRREQLRKREVELETLRIRQHESREPIIDAYRQNQPAPQGNLYNEFNHYDSMKHASPSDPATYFALKPMTEVNEGRQFSIPTSSTRRYDQVPIDPSPELQRREVPSKQSPPNYPKRSSVFGGRVSPLPRQSEVDPHPMPRYIPPMSPSNPIDDVPPTHVSELHAEKRMIVGIDDELQPEKNNVTYVTVATAAIDNELLHRHPEVGRHPVYVLPAQTSYGASAKRRSSDDEAKNVLPPQNCTVEHCTHVAVNDGSPVVIRKRASQDSIRDKENRLTIPINEDDTENVGEGTNYQNVSKKCFEERLHYDSYMPTLSLRQRPVVSFYDKLH | not soluble
12 | MQVSGSSGNRIWDANLSQNLTYTWTPQTYSGFYYDLDTGEGSENMTIQLTEGSRSVQRNGLQYETRPIETNFEYGNWGSYQVIGFMAERYFAGYTENSNFVNDDISVISDGQLSKILIDSDDRKSLYTGSSLILEEGYSLNIVEVDVNGNTVWVQLEKDGDVIDNGFLSSNSNYVYETDLGDADDVPLIAVHLAQIFRGTETNAIFVEGIFQISDEYVQIENGDRFGKMEISSTSSSGIIMRNRDSFTLGRGDTVDIMGKLSFVVADSSELRFAPIVEISEPGTYELRLEHHHHHH | not soluble
13 | MAHHHHHHMTEPVRILVRRDEITVDSIMQYFVAVDEEKNKFETLCDLYDTLTIAHAVIFCNTRKKVEQLAKKMRKEKFSVSCMHGDMPQAERDEIMRNFREGKSRVLISTDLWSRGIDVEQVSLVLNYDLPFSREQYIHRIGRTGRMGRKGLAISFVKHDELRLLRDVEQFYATQIEELPANIADQF | not soluble
